Measured values from paper PMC5650148, “Ssn6-Tup1 global transcriptional co-repressor: Role of the N-terminal glutamine-rich region of Ssn6” (PLoS ONE, 2017).

B1: Ssn6 Sc3T (N175), the 175 amino-terminal residues of Ssn6 (domain or fragment, yeast, UniProt P14922 1-175, looked up)
chain: MNPGGEQTIMEQPAQQQQQQQQQQQQQQQQAAVPQQPLDPLTQSTAETWLSIASLAETLGDGDRAAMAYDATLQFNPSSAKALTSLAHLYRSRDMFQRAAELYERALLVNPELSDVWATLGHCYLMLDDLQRAYNAYQQALYHLSNPNVPKLWHGIGILYDRYGSLDYAEEAFAK
notes: Ssn6 (also known as Cyc8), yeast, the 175 amino-terminal residues: NTpolyQ tail and TPRs 1 to 3; One molecule stands for both two-hybrid forms of the same fragment: LexA-Sc3T as bait and Sc3T-Vp16 as prey; A chain carries either LexA or Vp16, never both; The LexA form was also used in the repression assay; also called LexA-Ssn6 Sc3T; LexA-Sc3T (N175); source: yeast two-hybrid fusion (LexA hybrid …)
B2: Tup1 N72, the Ssn6-interaction and Tup1 oligomerization domain (domain or fragment, yeast, UniProt P16649 1-72, looked up)
chain: MTASVSNTQNKLNELLDAIRQEFLQVSQEANTYRLQNQKDYDFKMNQQLAEMQQIRNTVYELELTHRKMKDA
notes: One molecule stands for both two-hybrid forms: LexA-Tup1 N72 as bait and Tup1 N72-Vp16 as prey; also called LexA-Tup1 N72; Tup1 N72-Vp16; source: yeast two-hybrid fusion (LexA hybrid from YCp91; Vp16 hybrid from YEp92)
B3: Ssn6 Δ29 (amino acids 30 to 180) (domain or fragment, yeast, UniProt P14922 30-180, looked up)
chain: QAAVPQQPLDPLTQSTAETWLSIASLAETLGDGDRAAMAYDATLQFNPSSAKALTSLAHLYRSRDMFQRAAELYERALLVNPELSDVWATLGHCYLMLDDLQRAYNAYQQALYHLSNPNVPKLWHGIGILYDRYGSLDYAEEAFAKVLELD
notes: Ssn6 (also known as Cyc8), yeast, amino acids 30 to 180; lacks residues 1-29 of the NTpolyQ tail and contains three intact TPRs; also called Ssn6 Δ29-Gal4; LexA-Ssn6 Δ29; source: yeast two-hybrid fusion (clone isolated from a Gal4pAD yeast genomic library, pACTII)
B4: Ssn6 Δ45 (amino acids 46-181), Vp16 activation hybrid (domain or fragment, yeast, UniProt P14922 46-181, looked up)
chain: AETWLSIASLAETLGDGDRAAMAYDATLQFNPSSAKALTSLAHLYRSRDMFQRAAELYERALLVNPELSDVWATLGHCYLMLDDLQRAYNAYQQALYHLSNPNVPKLWHGIGILYDRYGSLDYAEEAFAKVLELDP
notes: Ssn6 (also known as Cyc8), yeast, amino acids 46-181; lacks the entire NTpolyQ tail (1-45); the four N-terminal TPRs; also called Ssn6 Δ45-Vp16; Ssn6 Δ45-Vp1; source: yeast two-hybrid fusion (YEp92)
B5: Ssn6 Δ45 (amino acids 46-181), purified recombinant fragment (domain or fragment, yeast, UniProt P14922 46-181, looked up)
chain: B4 chain
notes: Ssn6 (also known as Cyc8), yeast, amino acids 46-181; the four N-terminal TPRs, without the NTpolyQ tail; Cloned in pGEX-2T; GST was removed with thrombin on the column; also called GST-Δ45; source: E. coli BL21(DE3), purified (Glutathione Sepharose 4B, thrombin digestion, Biogel P100 gel filtration)

Key:
[1] = target: B2; test: cell-based or functional assay
[2] = target: B2; test: two-hybrid; LexA hybrids as DNA-binding baits, Vp16 or Gal4 activation domain hybrids as preys; wild-type yeast strain; lacZ reporter JK103 with four LexA operators upstream of the GAL1 TATA element; beta-galactosidase activity in Miller units, average of at least three transformants; settings: partners not purified
[3] = target: B1; test: as above; settings: partners not purified
[4] = target: the molecule itself; test: as above
[5] = target: the molecule itself; test: SEC; Biogel P100 gel filtration in 20 mM phosphate buffer pH 8.0, 300 mM NaCl, 1 mM DTT; calibrated with protein standards; self-association of the fragment

For B1, the “fold repression of the 4Lop-CYC1 lacZ reporter by LexA-Ssn6 Sc3T in the wild-type strain (endogenous Tup1)” value [1] was 12 fold and the beta-galactosidase activity [2] was 80 Miller units.

Work on B2 yielded a beta-galactosidase activity [3] of 51 Miller units and a beta-galactosidase activity [4] of 56 Miller units.

B3 was tested, and the “fold repression of the 4Lop-CYC1 lacZ reporter by LexA-Ssn6 Δ29 in the wild-type strain (endogenous Tup1)” value [1] was 1 fold and the beta-galactosidase activity [3] was 93 Miller units.

With B4 the “fold repression of the 4Lop-CYC1 lacZ reporter by LexA-Ssn6 Δ45 in the wild-type strain (endogenous Tup1)” value [1] was 1 fold and the beta-galactosidase activity [3] was 122 Miller units.

B5 was tested, and the “stoichiometry N” value [5] was ~3.
